# In a protein production outcome set (Wang et al. 2014):
# Assay: label from the status in PepcDB records
row,Sequence,protein production
1,MLDPATRTPPSLPDFIIGGAMKSATSSLHHLLSNHEQVYLPDGETHFFCMDDPVQHSGFFFPARAPSQRAPDYDRHGETNLDWYRQLFEPAHPDQCVGDYSSTYLPAPDAPLRIKRLLPDVKLLFMLRNPVDRTYSHYWHRVKTGRAVHGFEYELQHGPSTLLLRSFYKPQLERYFDFFPEDQVKVILFERFVDHTQAVVDEVCSFLGLETAVDVAGVDAHQNRSPVPRWPGLQLLLNYCTTGIETRSEGQLPYPAQPQSSYALQGLVHHLRQLNLTPRRPPPMNDSVRACLEQIFARKNQDLGTLLGVDLTSYWPFLRKQHDEPAETAA,failed
2,MNSTEITQNTDVPSHFRSIKTFVLRTGRMTEGQKRNYEAFYQKWCIPYTESPIDFQTLFQNDNPVIIEIGFGMGTATAQIAEDNPDKNYLGIEVFKAGVGKLLGEIEEKKLNNLRIIEHDAIEVLENMINNESVDGFHIFFPDPWQKKRNHKRRLVRRPRTDLLSKKLKDGGYIYMVTDWENYAEDAFEQLSETPNLKSKYEKFAPSQSWRPTTKFEKKGLKKEHVINELIFEKD,failed
3,MNVTTTRFGEIAVEEAKIITLPDGMLGFSEKRFVLLTPQNITPFCWLQSVENPELAFVVVDTKECASDYAVKLTAEESEKLCVNDGDEVVLLAVVTMASDPFNITVNLQGPIALNPKRMLAKQIVLEGSRYTTKHPFFDQAARSKAPGKRNASGEVTAA,not failed
4,MPSMPFLTRPVLAAGTFSGAPQPTLPTGDGLVLRPWRTEDAPAVHVAFQDPVMHQWHARAADSEEEVRGWITEWQGAWERERGVQWAVADAADDRLLGRVALREWVLGDGVAEVAYWTTADARGRGVAARATRTLAHWALDEIGFQRLELLHAVANDASCRVAQKTGFALEGTKRKAVLHPDGWHDMHLHARVRGD,failed
5,MNILKRKTPQNIRFGEQKPKYYFHIRAFAVLLGVFFLLGVYFNWQSILEKMDDKPISAFALVGQNTFTTADDIKESLLKMGELKGFWGQDVAPIQEQIEALPWVKGAIVRKMWPNRLSIWVSEYQPVAFWNQNQFVTLDGIVFQLPSVRLTAKNLPYLGGPDYQSLKVIETWNQIYINLKSNNIMAKGINIDDRGAWQVQLDNDIVLKLGRGDWKSKLERFVTIYPQIDVPENKKIDYIDLRYTAGAAVGMVDR,failed
6,MKILVAFDGSDGAQKALGFAINFSKDCERMIVLYVSRDIISESGRLTYIPDTALERRDSEDEAILARARSILASSNIPFEIIKKNSDGVDVSKVIADTAKELECNMIITGTRKLRGLSKYLLGSVSAGIIAISNVPVIVVP,failed
7,MHVYESDVSWIDDRRTEVSVGDHRIEVDSPPEFGGPEGQLYPETLFPSVLASCLLTTFLEFKDRMGINLKSWNSHVTAELGPSPEKGFKFHRIKIHVKIGVNDEDKEKIPRAMQLAEKYCFISRAIRNNVEEIVDYEFV,not failed
8,MKTNSEELTVFVQVVESGSFSRAAEQLAMANSAVSRIVKRLEEKLGVNLLNRTTRQLSLTEEGAQYFRRAQRILQEMAAAETEMLAVHEIPQGVLSVDSAMPMVLHLLAPLAAKFNERYPHIRLSLVSSEGYINLIERKVDIALRAGELDDSGLRARHLFDSRFRVIASPEYLAKHGTPQSTEELAGHQCLGFTEPGSLNTWAVLDAQGNPYKISPHFTASSGEILRSLCLSGCGIVCLSDFLVDNDIAEGKLIPLLAEQTSDKTHPFNAVYYSDKAVNLRLRVFLDFLVEELGNNLCG,failed
9,MISTTTVSDLYITFGLIGVFLAGMIAVLYATNRKSDSFSDYAVGGRSYGPWFIAMCYTNSWWPGATFTAFFALSVGGALGFYGMVYATLGVTAMYLMANRAWTWGKRFNLTTQPDLLGMRFNSPVVKRIASIIGIISVFPWVVMGIQALATLFQFASFGRWGVTTCLLVGVAVILIRQYWTVSMGMRGLIMTDMYQGLIAYVLCAALCIFLMFGAQASFSNLSQLPASMLVIPGGTGSTYGPMYMFSLIFTGVIGSMCWPMSFQRIYTASGVRSVKKGTLLTILLVGGFYGILMLFAAAISQDPNVAAHPQHGWFLSLFDIGGPWLLAVAIMIVLAASIGHVDGCVQVCGTQFANDLATWNTPRSDREKTILAKAGMVVFIAAASLLAYLTFDYARLQLLAQISYQGIIQLAVPLFFGVFSRRGNKQGAIVGMLVGIVIAIVLTTIYPDDIPGLGSLTSGIVGLIFNAGIFVACAVAIKPSAEEVRRVDELFAMAAPQRHPAGVAPVMS,failed
10,MKLRTQISILLIVFAVLLSGIVFAGFQLNKESVTGRQLDETTQHSERIAAGLDTRLKGLKRTVRLQATNPAIAAHGTPQQHYALKTMVNETMFNGVSVIHRNGTMTGIAAGLDPETRSELIGSDFSDRHYFQRARNGETYISAPVVADSGNYIVTISTPIYRDGAVVGTLNAALHLQDSSIFRMASKTANRDSSVFIRTQSGNQIYNRSAHLSSDPVTANATVNETGWIVQVQTSRNVLAGDLRTVTIYQLGGIGLVLALISGFGSILYTQILRYHRQLVRGFEALQRQEYGQQVAEEATGDWGQIFTAFNELSQTLAEYEEERVKHRNELQQERDRFRRLFQSIPEPAVVVEYTGNKTLIHNVNEAFEETFGYEASNAVGGDINDFIVPDGSLEEAESIDQLSSSGKQVTHEVRREAADGKRDFLLRSTPAVDGEDEVYFGVYIDITDRKQQERELTETNSVLSSVLDNMPVGILIEDADRTITTANKKLLDILDVSLTPSGLIGCEYAEIAETLKTQFADPDQFNETVNKIHSTRDAVFDEELLMADGRILARSYVSYSLPDGTGNIWLYRDITKNRQRERKLRETLEKTQKLIQAESIDEAATIAVEIANQTLSFPLSSVHLERKDGELEPAAITDAFEEGVGDTPVYQRTADNSSIDKLVWDVYTSGETRVLTDTGAEIPETISGMPSSGGIIQPMTNHGVLVTLGDSPNRFDEFDQYLVELLGAILATTLDRINQKQQIESQRDNLDLLNQIVRHDIRNDLQILLGRLDLLAERANDAQSEHVNAALRCAENAVELTQSARELSEVLLQNGTDSKPISLNRVVRQQIEEIRSANTDAEITINGSIPDVMIRANEMFDSVIRNLLKNAIQHNDKQDPEITISAIDQKEYVQLRIADNGPGVRDAQKESIFGKGEKELESSGTGIGLYLVSTLIESYGGDVWVEDNNPRGAVFVIELVKDS,failed
11,MNKVITDLDKALSALKDGDTILVGGFGLCGIPEYAIDYIYKKGIKDLIVVSNNCGVDDFGLGILLEKKQIKKIIASYVGENKIFESQMLNGEIEVVLTPQGTLAENLHAGGAGIPAYYTPTGVGTLIAQGKESREFNGKEYILERAITGDYGLIKAYKSDTLGNLVFRKTARNFNPLCAMAAKICVAEVEEIVPAGELDPDEIHLPGIYVQHIYKGEKFEKRIEKITTRSTK,failed
12,MRNMQEKGVSEKEILEELKKYRSLDLKYEDGNIFGSMCSNVLPITRKIVDIFLETNLGDPGLFKGTKLLEEKAVALLGSLLNNKDAYGHIVSGGTEANLMALRCIKNIWREKRRKGLSKNEHPKIIVPITAHFSFEKGREMMDLEYIYAPIKEDYTIDEKFVKDAVEDYDVDGIIGIAGTTELGTIDNIEELSKIAKENNIYIHVDAAFGGLVIPFLDDKYKKKGVNYKFDFSLGVDSITIDPHKMGHCPIPSGGILFKDIGYKRYLDVDAPYLTETRQATILGTRVGFGGACTYAVLRYLGREGQRKIVNECMENTLYLYKKLKENNFKPVIEPILNIVAIEDEDYKEVCKKLRDRGIYVSVCNCVKALRIVVMPHIKREHIDNFIEILNSIKRD,not failed
13,MSIPNHVSTTEVVLLELEILLTIISIGAWGGFVSYLLRKDKTEYNSSHESIKYCLTQIVISCFTSFLLSAIAIEKECSFNIVLLAAGLGGVFASPILKILGRRIKKIIEGNNSD,failed
14,YTPMSDLGQQGLFDITRTLLQQPDLASLSEALSQLVKRSALADSAGIVLWQAQSQRAQYYATRENGRPVEYEDETVLAHGPVRRILSRPDALHCNFHEFTETWPQLAASGLYPEFGHCCLLPLAAEGRIFGGCEFIRQEDR,failed
15,MRTICVFNNKGGVGKTTLLCNLAAYFSIKRGKKVLVVDADPQCNATAYMIKEKVLDKLYASSSSDSATINSLIASLKKSKGYGIPPVLRSDGFNVDIVPGDPKFSLAEDFLAKDWLDAIAGDERGLRTTFFFRNLISWARSDGYDLVFFDMGPSLGAINRTVLLSSDHFILPMSSDIFSLRGLQNIEVALKNWTKGIERGLVSFKEDQGTSFKVESGDALSELGVSFLGYVTQQYTAKTVDGKKQPVSAYEKIIKKIDPLVSKHLILPLNKGQKLNYKLGEIPYFQSLVPMAQTATVPIFALKKADGVVGAHFDKVRQFDSVISGIVDKIEANMNSKGN,failed
16,MLFWGSAFNAMSYVIQYMPPLSAAAERFTIASLGLFILFAAIGKLRWAALRQNLAIYLIIGIIGIAGFNLGCFYGLQTTSAVNGALIMATTPLITLLLTILLDGEKLTLNKSIGVVFGLSGVLFVISHGHISTLLHLKIAIGDLFILLGGVSFCLANMLSRRYVKNATPLETTTFSMMSGALTLIILSVIFEHPSQAIAMAPITAHLAMGYVIICSTMIAYLFWFNGIQKLGAGRASIFFNFVPVFSMLVALLAGQSLNIWQLIGTALVMLGVMSSGGFIQIKRPTLIAKPCTK,failed
17,MDEDGFSQCSKHFSKRGYFSGGGVCPFCLHERLSSLCPDCAHDLPCSCSSRAAVSFSPSSSSSSSSFSIFAGDISFNISGVGSVGRVASLIECEPAFRRSKSMAIPIKPDSVIDSGLDHGRSKKTSSFWRIFMGNRGDTKPAIMKKSRSVAVAGEFGFSPVPVPATGKGKGWNFPSPIKVFRQSRVSKMIFQQRSPLYRG,failed
18,KGGVWRNTEDEILKAAVMKYGKNQWSRIASLLHRKSAKQCKARWYEWLDPSIKKTEW,not failed
19,MDFVIRRATAEEYDTLGEITAQAYLRDGLLDFGESDSYLDELRDVAKRAAAAEVLVAVADDAVLGGATFVPSGGPMADIARPGEAEIRMLAVAREARGRGAGEALVRACADRARAVPGCTGVVLSTQAAMRTAHRLYERLGFVRTPDRDWNPLPELDDIMLLTYELTL,failed
20,MKPVAPRSFFAMDFLEFITAWEGKWLSQRTNYSFEQNEAGNAKSDVTVQRWDSQTELGRSLLERAGLKNQGELILLQLSWDNSVDWGKSKQKGTIYYGFLPDADHGDRGQLWRGTTNSNLAFLRGDYHLGSDECLTLNLGDGETSLTERHWYASPNLRLRTSLIQQGEGYSHSAFYSDIRRLPPAE,failed
21,MHRVHGTLHASFTIECRNMFKRFFLALIGVGILLSESTQASESPPYSMVLLTENFPPFNMAVDGKNFAQENNIDGIAAEVVREMFKRANIGYSMTLRFPWDRVYKLALDKPGYGVFSTTRLPEREKLFKWIGPLGSYDWIMLARGDSPITLASLEQAKDYRIGAYKGDAIGERLNAMGLNPILMLRDRDNVKKLANGQIDLWAVGDPVGRYLAKLEGVSGFKTALRFNSAELYLAVNKSTPDEIVNRLQAALDQMRTEGWVDAVKARYQLEHHHHHH,not failed
22,MFDNLQRKFLNLIGIEIEEEDKPQESTKAKEENVKPKHETPKVVTIGKANQTEVTVYNLKLFDEVVKVCDALRENKIVVFNLEQVAEDHIQRIIDFVSGAVYVLDAKIHKVSKKIFVVVPRSIDLEVDEQLKEEFRTKGVFAWLK,failed
23,MKPTLLVLAAGMGSRYGGVKQIAAVGRHDETLLDYAVYDAMNNGFGKVVFIIREDIENDFRERFFNRIARNCNADYVFQSMDGFLTDEQIKRAVNRKKPWGTAHAILSAELKINEPFAVINADDYYGRSAYKTIATHLSTLSNDSTEHAMVGYILDKTLSRSGSVSRGVCQVGNGYLIGITEHKDIAYKKEGSVEKIVSEHEGKTVEFSGKETVSMNLFGFSPKIFDFMNEYFKDFIHKYAESEKAECLLPEGVGAMMKKGLGKVKVYTTTERWFGMTYPEDREIVKKELENKVKEGYYPEFLWR,failed
24,MSSTKRQKNRVLVKLKKRKVRKDKIEKWAELALSALGLNNVELSVYITDDQEIRELNKTYRKKDKPTDVLSFPMGEEFGGYKILGDVVISQDTAERQARELGHSLEEEVKRLIVHGIVHLLGYDHEKGGEEEKKFRELENYVLSKLSKAL,not failed
